Source: US20080085279A1
Like-named read-outs stand apart in the source and are kept apart here.

What was measured:
[1] = biological target: Recombinant MDM2 (baculovirus-expressed, pBlueBacHis2:MDM2) (human) (UniProt Q00987); experiment: cell-based or functional assay
[2] = biological target: Recombinant MDM2 (baculovirus-expressed, pBlueBacHis2:MDM2) (human) (UniProt Q00987); experiment: cell-based or functional assay; remark: listed apart in the source

Chain of Recombinant MDM2 (baculovirus-expressed, pBlueBacHis2:MDM2) (human) (Q00987 whole entry): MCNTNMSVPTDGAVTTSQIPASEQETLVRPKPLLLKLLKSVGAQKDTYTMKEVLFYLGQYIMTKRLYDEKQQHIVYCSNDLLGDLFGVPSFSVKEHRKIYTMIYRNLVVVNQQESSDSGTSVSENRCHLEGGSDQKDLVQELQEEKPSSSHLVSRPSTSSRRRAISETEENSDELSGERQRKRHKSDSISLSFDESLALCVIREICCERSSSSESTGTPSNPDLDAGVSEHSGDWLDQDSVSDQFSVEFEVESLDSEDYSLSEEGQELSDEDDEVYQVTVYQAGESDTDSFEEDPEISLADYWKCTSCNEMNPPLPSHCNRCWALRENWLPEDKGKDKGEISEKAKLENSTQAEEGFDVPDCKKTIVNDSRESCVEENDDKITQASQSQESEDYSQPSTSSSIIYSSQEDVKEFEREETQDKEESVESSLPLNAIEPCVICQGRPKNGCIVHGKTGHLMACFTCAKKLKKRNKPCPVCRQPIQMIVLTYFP

In the case of “Recombinant hMTBP (bacterially expressed from pQE-hMTBP) (from UniProt Q96DY7 1-904)”, the MDM2 auto-ubiquitination in vitro (molar ratio MTBP:MDM2) [1] is reported as 3 and the MDM2 auto-ubiquitination in vitro (molar ratio MTBP:MDM2) [2] is reported as 10.
